Laboratory results published in US20260098102A1 (NATIONAL UNIVERSITY CORPORATION KOBE UNIVERSITY, published 2026).

B1: OSE-172 (antibody, human IgG4 S228P, kappa, V domains shown)
VH: EVQLVQSGAEVKKPGESLRISCKASGYSFTSYWVHWVRQMPGKGLEWMGNIDPSDSDTHYSPSFQGHVTLSVDKSISTAYLQLSSLKASDTAMYYCVRGGTGTLAYFAYWGQGTLVTVSS
VL: DVVMTQSPLSLPVTLGQPASISCRSSQSLVHSYGNTYLYWFQQRPGQSPRLLIYRVSNRFSGVPDRFSGSGSGTDFTLKISRVEAEDVGVYYCFQGTHVPYTFGGGTKVEIKR
notes: IgG4Pro heavy chain
B2: cF44 (IgG1) (antibody, V domains shown)
VH: EVQLVESGGGLVQPGRSLKLSCAASGFTFSNYYMAWVRQAPTKGLEWVTYITTGGGSTYFRDSVKGRFTISRDNAESTLYLQMDSLRSEDTATYYCTAANYGGSYFDYWGQGVMVTVSS
VL: DVQMTQSPSNLAASPGESVSINCKASKSISKYLAWYQQKPGKANKLLIYSGSTLQSGTPSRFSGSGSGTDFTLTIRNLEPEDFGLYYCQQHNEYPPTFGAGTKLELK
notes: Human IgG1 constant region; also called cF44 IgG1 type
B3: cF44 (IgG4p) (antibody, V domains shown)
VH: B2 VH
VL: B2 VL
notes: Human IgG4p (PRO mutation) constant region; also called cF44 IgG4p type
B4: cF44 (IgG2) (antibody, V domains shown)
VH: B2 VH
VL: B2 VL
notes: Human IgG2 constant region; also called cF44 IgG2 type

Columns and labels:
human SIRPB = molecular target: T1, human SIRPB (human, UniProt O00241 30-398); assay: flow cytometry on CHO-K1 cells expressing FLAG-tagged human SIRPB; PE anti-human IgG; MFI standardized to secondary antibody alone
T1 construct: whole, on cells; FLAG-tagged (pFLAG V5-DEST), on CHO-K1 cells; also called SIRPβ1; signal regulatory protein β1
T1 sequence (O00241 30-398): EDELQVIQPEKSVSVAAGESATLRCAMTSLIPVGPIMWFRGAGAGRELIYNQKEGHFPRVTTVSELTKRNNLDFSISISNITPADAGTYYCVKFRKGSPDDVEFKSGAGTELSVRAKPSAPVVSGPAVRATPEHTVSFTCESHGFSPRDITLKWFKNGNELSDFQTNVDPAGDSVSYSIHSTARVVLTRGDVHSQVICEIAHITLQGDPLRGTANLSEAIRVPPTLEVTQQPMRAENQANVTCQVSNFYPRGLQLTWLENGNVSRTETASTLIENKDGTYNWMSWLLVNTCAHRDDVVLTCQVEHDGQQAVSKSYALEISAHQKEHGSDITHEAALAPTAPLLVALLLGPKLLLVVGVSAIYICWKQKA
Procedure: SIRPβ1 (signal regulatory protein β1: the amino acid sequence thereof is published as RefSeq accession number NP_006056) and SIRPγ (signal regulatory protein γ: the amino acid sequence thereof is published as RefSeq accession number NP_061026) are molecules belonging to the SIRPA family. In the present invention, “SIRPα” may be referred to as “SIRPA,” “SIRPβ1” may be referred to as […] and “SIRPγ” may be referred to as “SIRPG.” CHO-K1 cells were prepared in a 10% FBS-containing Ham's F-12K medium at 3.3×10⁵ cells/mL and cultured overnight at 37° C. under a 5% CO₂ condition. pFLAG V5-DEST-human SIRPβ, pFLAG V5-DEST-human SIRPG, or pFLAG V5-DEST was introduced into the cells using Lipofectamine LTX (Invitrogen), and cells were cultured in a 10% FBS-containing Ham's F-12K medium at 37° C. under a 5% CO₂ condition for 24 hours. The obtained introduced cells were collected and seeded on a 96-well plate. After the culture supernatant was removed, 100 μL per well of various anti-human SIRPA antibodies or various control human IgG was added to each of various gene introduced cells at a final concentration of 0 to 10,000 ng/mL, and the mixture was allowed to stand at 4° C. for 25 minutes. After the mixture was centrifuged, the supernatant was removed, and cells were washed twice with 5% FBS-containing PBS. After the mixture was centrifuged, the supernatant was removed, 50 μL per well of a 1/400 diluted solution of PE Mouse anti-Human IgG antibody (BioLegend) was added, and the mixture was allowed to stand at 4° C. for 25 minutes. After the mixture was centrifuged, the supernatant was removed, and cells were washed twice with 5% FBS-containing PBS.
After the mixture was centrifuged, and the supernatant was removed, cells were suspended in 100 μL per well of 1× BD Stabilizing Fixative (Becton Dickinson), and the cell count was measured by flow cytometry (FACS Canto II: Becton Dickinson). For data analysis, FlowJo (TreeStar) was used. Cells were characterized by detecting forward scattered (FSC) light and side-scattered (SSC) light, and then the mean fluorescence intensity of PE was calculated. Binding of various antibodies to the family molecules was calculated by standardizing the fluorescence intensity using the mean fluorescence intensity of a sample in which the secondary antibody alone was allowed to react.

human SIRPA_V1 protein [1] = molecular target: T2, human SIRPA_V1 protein (human, UniProt P78324 31-504); assay: blocking cell-based ELISA: peroxidase-labeled CD47-Fc (1 µg/mL) on 293α cells expressing SIRPA_V1
T2 construct: Expressed on 293α cells from pcDNA3.2 V5-DEST or pFLAG V5-DEST (FLAG-tagged) vectors; also called human SIRPA Variant 1; hSIRPA V1
T2 sequence (P78324 31-504 limits assumed): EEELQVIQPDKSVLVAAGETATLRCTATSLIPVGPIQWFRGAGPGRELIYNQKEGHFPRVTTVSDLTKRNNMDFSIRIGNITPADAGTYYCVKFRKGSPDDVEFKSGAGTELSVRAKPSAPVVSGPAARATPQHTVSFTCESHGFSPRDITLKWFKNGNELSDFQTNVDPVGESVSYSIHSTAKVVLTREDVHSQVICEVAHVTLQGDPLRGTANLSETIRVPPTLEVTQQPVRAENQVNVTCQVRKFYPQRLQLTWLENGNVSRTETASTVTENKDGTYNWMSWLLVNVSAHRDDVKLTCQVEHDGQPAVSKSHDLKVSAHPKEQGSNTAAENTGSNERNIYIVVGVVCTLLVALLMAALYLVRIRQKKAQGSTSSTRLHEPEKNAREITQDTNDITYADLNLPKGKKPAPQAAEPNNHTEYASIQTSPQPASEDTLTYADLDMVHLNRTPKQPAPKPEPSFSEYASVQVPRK
Procedure: After the culture supernatant of the human SIRPA_V1 or V2 expression vector-introduced 293 cells prepared in Example 9)-1 was removed, 50 μL per well of various anti-SIRPA antibodies or various control Human IgG diluted with 5% FBS-containing PBS to a final concentration of 0 to 10,000 ng/ml was added to each of pcDNA3.2 V5-DEST-SIRPA_V1 or V2-introduced 293α cells, immediately followed by addition of 50 µL per well of peroxidase-labeled CD47-Fc prepared with 5% FBS-containing PBS at 1 μg/mL, and the mixture was allowed to stand at 4° C. for one hour. Thereafter, the SIRPA-CD47 binding inhibitory activity was evaluated in the same manner as in 1)-6-3.

SIRPA_V1_IgV = molecular target: T3, SIRPA_V1_IgV (human, UniProt P78324 31-149); assay: SPR Biacore T200, antibody captured on anti-human IgG (Fc), SIRPA_V1_IgV as analyte (0.25 to 16 nM), 1:1 model
T3 construct: Secreted recombinant protein from FreeStyle 293F cells
T3 sequence (P78324 other isoform, or with tags, fused parts or gaps limits assumed): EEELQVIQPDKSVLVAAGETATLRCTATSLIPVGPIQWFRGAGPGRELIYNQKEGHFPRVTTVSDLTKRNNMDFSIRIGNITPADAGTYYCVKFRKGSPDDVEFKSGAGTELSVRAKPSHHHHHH
Procedure: The dissociation constants were measured by a capture method comprising capturing each antibody as a ligand to an Anti-Human IgG (Fc) antibody immobilized using Human Antibody Capture Kit (GE Healthcare Bioscience Corp.) and measuring an antigen as an analyte, using Biacore T200 (GE Healthcare Bioscience Corp.). HBS-EP+ (GE Healthcare Bioscience Corp.) was used as a running buffer, and CM5 (GE Healthcare Bioscience Corp.) was used as a sensor chip. Onto the chip, 2 μg/mL of various antibodies were added at 10 μL/min for 30 seconds, then a serially diluted solution (0.25 to 16 nM) of the human SIRPA protein as an antigen was added at a flow rate of 30 μL/min for 120 seconds, and subsequently the dissociation phase for 600 seconds was monitored. As a regenerant, 3 M magnesium chloride (GE Healthcare Bioscience Corp.) was added at a flow rate of 20 μL/min for 30 seconds. For data analysis, a binding rate constant (ka), a dissociation rate constant (kd), and a dissociation constant (KD; KD=kd/ka) were calculated using a 1:1 binding model.

human SIRPA_V1 protein [2] = molecular target: T2, human SIRPA_V1 protein; assay: cell-based ELISA on 293α cells expressing FLAG-tagged SIRPA_V1; Abs 490 normalized to FLAG tag
Procedure: (§1) The 293α cells [described in Example 1)-6] were prepared in a 10% FBS-containing DMEM medium to 5×10⁵ cells/mL. pFLAG V5-DEST-SIRPA_V1, pFLAG V5-DEST-SIRPA_V2, or pFLAG V5-DEST was introduced into the cells using Lipofectamine LTX (Invitrogen), followed by addition of 100 μL per well to a 96-well plate (Corning Incorporated), and cells were cultured overnight in the 10% FBS-containing DMEM medium at 37° C. under a 5% CO₂ condition. The obtained introduced cells were used for cell-based ELISA in a state that they adhered to each other. After the culture supernatant was removed, 50 μL per well of the cD13 (IgG2 and IgG4pf), cF44 (IgG1, IgG2, IgG4p, and IgG4pf), and cF63 (IgG2 and IgG4pf) antibodies prepared in Examples 3 and 4 were added to each of pFLAG V5-DEST-SIRPA_V1, pFLAG V5-DEST-SIRPA_V2, or pFLAG V5-DEST-introduced cells at final concentrations of 0 to 10,000 ng/mL, and the mixture was allowed to stand at 4° C. for one hour. Further, 50 μL per well of anti-FLAG M2 antibody (SIGMA) diluted with 5% FBS-containing PBS to a final concentration of 10,000 ng/mL was added to a well for detecting expression of each SIRPA construct, and the mixture was allowed to stand at 4° C. for one hour. The cells in the well were washed once with 5% FBS-containing PBS, followed by addition of Peroxidase AffiniPure F(ab′)₂ Fragment Goat Anti-Human IgG, Fcγ Fragment Specific (Jackson ImmunoResearch) diluted 1000-fold with 5% FBS-containing PBS, and the mixture was allowed to stand at 4° C. for one hour. The cells in the well were washed five times with 5% FBS-containing PBS, followed by addition of 100 μL per well of an OPD coloration solution [o-phenylenediamine dihydrochloride (Wako Pure Chemical Industries, Ltd.) and H₂O₂ were dissolved in an OPD solution (0.05 M trisodium citrate, 0.1 M disodium hydrogen phosphate dodecahydrate, pH 4.5) at 0.4 mg/mL and 0.6% (v/v), respectively]. A coloration reaction was performed with stirring occasionally, 100 μL per well of 1 M HCl was added to terminate the coloration reaction, and then absorbance at 490 nm was measured with a plate reader ARVO (PerkinElmer Inc.). Binding of the human chimeric anti-human SIRPA antibodies to each construct was standardized by expression of the FLAG tag.

human SIRPA_V2 protein [3] = molecular target: T4, human SIRPA_V2 protein (human, UniProt P78324 31-504); assay: cell-based ELISA on 293α cells expressing FLAG-tagged SIRPA_V2; Abs 490 normalized to FLAG tag
T4 construct: Expressed on 293α cells from pcDNA3.2 V5-DEST or pFLAG V5-DEST (FLAG-tagged) vectors; also called human SIRPA Variant 2; ECD variant (full-length, amino acids 1 to 504)
T4 sequence (P78324 other isoform, or with tags, fused parts or gaps limits assumed): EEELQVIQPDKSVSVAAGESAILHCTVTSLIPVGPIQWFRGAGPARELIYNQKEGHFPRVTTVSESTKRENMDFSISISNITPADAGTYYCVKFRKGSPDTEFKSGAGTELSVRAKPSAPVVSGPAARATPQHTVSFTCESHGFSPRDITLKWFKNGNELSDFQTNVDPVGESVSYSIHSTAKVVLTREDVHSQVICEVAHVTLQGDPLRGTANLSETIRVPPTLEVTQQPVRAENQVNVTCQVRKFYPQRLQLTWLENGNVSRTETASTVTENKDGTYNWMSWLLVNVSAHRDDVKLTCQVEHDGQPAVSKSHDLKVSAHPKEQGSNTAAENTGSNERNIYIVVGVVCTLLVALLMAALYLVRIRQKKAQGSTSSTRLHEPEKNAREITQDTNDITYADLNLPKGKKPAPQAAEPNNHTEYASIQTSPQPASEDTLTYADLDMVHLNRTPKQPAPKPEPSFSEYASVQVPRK
Procedure: as §1

human SIRPA_V1 protein [4] = molecular target: T2, human SIRPA_V1 protein; assay: blocking cell-based ELISA: peroxidase-labeled CD47-Fc (10,000 ng/mL) on 293α cells expressing SIRPA_V1; y axis = CD47-Fc signal in % of no antibody [i]
Procedure: After the culture supernatant of the human SIRPA and monkey SIRPA expression vector-introduced 293α cells prepared in Examples 5)-1 and 5)-2, respectively, was removed, 50 μL per well of cD13 (IgG2 and IgG4pf), cF44 (four different constant regions IgG1, IgG2, IgG4p, and IgG4pf), and cF63 (IgG2 and IgG4pf) diluted with 5% FBS-containing PBS to final concentrations of 0 to 10,000 ng/mL were added to each of pcDNA3.2 V5-DEST-SIRPA_V1, pcDNA3.2 V5-DEST-monkey SIRPA, and pcDNA3.2 V5-DEST-introduced 293α cells, immediately followed by addition of 50 μL per well of peroxidase-labeled CD47-Fc prepared in 5% FBS-containing PBS at a final concentration of 10,000 ng/ml, and the mixture was allowed to stand at 4° C. for one hour. Thereafter, the SIRPA-CD47 binding inhibitory activity was evaluated in the same manner as in 1)-6-3.

human SIRPA_V2 protein [5] = molecular target: T4, human SIRPA_V2 protein; assay: blocking cell-based ELISA: peroxidase-labeled CD47-Fc (10,000 ng/mL) on 293α cells expressing SIRPA_V2; y axis = CD47-Fc signal in % of no antibody [ii]

| Binder | EC50 (read off the curve) (human SIRPB) | IC50 (human SIRPA_V1 protein [1]) | Kd (SIRPA_V1_IgV) | EC50 (read off the curve) (human SIRPA_V1 protein [2]) | EC50 (read off the curve) (human SIRPA_V2 protein [3]) | IC50 (read off the curve) (human SIRPA_V1 protein [4]) | IC50 (read off the curve) (human SIRPA_V2 protein [5]) |
| --- | --- | --- | --- | --- | --- | --- | --- |
| B1 | ~0.04 µg/mL | 2.32 µg/mL | 11.7 nM | – | – | – | – |
| B2 | – | – | – | ~0.04 µg/mL | ~0.04 µg/mL | ~0.4 µg/mL | ~0.4 µg/mL |
| B3 | – | – | – | ~0.05 µg/mL | ~0.05 µg/mL | ~0.5 µg/mL | ~0.4 µg/mL |
| B4 | – | – | – | ~0.04 µg/mL | ~0.04 µg/mL | ~0.4 µg/mL | ~0.3 µg/mL |
